Assay results as given in patent US7951385B2, “Probiotic strain and antimicrobial peptide derived therefrom” (Cipla Medpro Research and Development (Pty) Ltd., priority 2006, dated 2011).

Columns and labels:
[1] = system: Lactobacillus sakei DSM 20017; experiment: Blocking of the Lipid II target site with vancomycin; format: cell-based; details: L. sakei DSM 20017, FIG. 26
Description: To test this hypothesis, the Lipid II target site of Lactobacillus sakei DSM 20017 (sensitive to peptide ST 4SA) was blocked with vancomycin (see schematic presentation, FIG. 26). Vancomycin adheres to the amino acid side chain of the Lipid II molecule, which would, theoretically, prevent peptide ST4SA from binding to the same site (that is if Lipid II acts as receptor). […] The fact that peptide ST4SA binds to more than one anchoring site on the sensitive cell may explain why it has such a broad spectrum of antimicrobial activity (inhibitory to Gram-positive and Gram-negative bacteria).

Lactobacillus casei LHS = experiment: Effect of enzymes, temperature, pH and detergents on antimicrobial activity of peptide ST4SA; format: physicochemical; design: key: − = no activity; + = activity zones of at least 5 mm in diameter
Method: Antimicrobial activity was expressed as arbitrary units (AU) per ml cell-free supernatant. One AU is defined as the reciprocal of the highest dilution showing a clear zone of growth inhibition and is calculated as follows:
a^b×100, where “a” represents the dilution factor and “b” the last dilution that produces an inhibition zone of at least 2 mm in diameter. Activity is expressed per ml by multiplication with 100. Lactobacillus casei LHS was used as indicator strain.
The cells were harvested (8 000×g, 4° C., 15 min) and the cell-free supernatants adjusted to pH 6.0 with 6M NaOH. One ml of each supernatant was treated with catalase (Boehringer Mannheim) at 0.1 mg/ml (final concentration), Proteinase K (Roche, Indianapolis, Ind., USA), pronase, papain, pepsin and trypsin (Boehringer Mannheim GmbH, Germany), at 1 mg/ml and 0.1 mg/ml (final concentration), respectively. After incubation the enzymes were heat-inactivated (3 min at 100° C.) and tested for antimicrobial activity, as described before.
Aliquots of peptide ST4SA were exposed to heat treatments of 30° C., 60° C. and 100° C. for 10, 30 and 90 min, respectively, and 121° C. for 20 min (Table 3). The samples were then tested for antimicrobial activity, as described before.
In a separate experiment, samples of peptide ST4SA were adjusted to pH values ranging from 2-12, incubated at 37° C. for 30 min, neutralised to pH 7, and then tested for antimicrobial activity (Table 3).

[2] = system: Pseudomonas sp. isolated from infected middle-ear fluid; experiment: Activity on paper disks and comparison with antibiotics (inhibition zones); format: cell-based
Method: Activity was tested against a Pseudomonas sp. isolated from infected middle-ear fluid.

[3] = system: tumour necrosis factor (TNF), interferon γ (IFN); experiment: Immune modulation (cytokine RNA hybridization, ileum and colon); format: in vivo, rat
Method: Total RNA was extracted from the frozen ileum and colon samples using Trizol reagent. The concentration of RNA was determined by measuring the absorbance at 260 nm using a Nanodrop spectrophotometer, after DNase treatment had been completed. Each RNA sample was diluted to a concentration of 42 ng/μl. A total of 5 μg of each sample was transferred in triplicate onto a nylon membrane using a slot blot apparatus. The membrane was then probed with either a tumour necrosis factor (TNF), interferon γ (IFN) or β-actin DNA probe amplified from rat genomic DNA and labeled with DIG. The membrane was exposed to X-ray film overnight and developed.

[4] = system: pathogenic bacteria (Listeria, Bacillus and Staphylococcus); experiment: Challenge study with red meat as model, PE-bound peptide; details: surface (PE)-bound peptide
Method: Peptide ST4SA adhered strongly, and it would seem irreversibly, to the PE film. Release of peptide ST4SA from the surface of PE was only possible after 1 h with a current of 30 mA. […] The encapsulation of the antimicrobial peptide in the polymer leads to a slow release of the antimicrobial peptide and an extended period of treatment of a microbial infection.

In the case of “Peptide ST4SA: broad-spectrum antibacterial peptide (bacteriocin) produced by Enterococcus mundtii strain ST4SA, SEQ. ID. NO. 12 (MSQVVGGKYYGNGVSCNKKGCSVDWGKAIGIIGNNSAANLATGGAAGWKS; ENTEROCOCCUS MUNDTII ST4SA)”, the “Effect on target cells after blocking Lipid II with vancomycin” value [1] is reported as “resulted in growth inhibition”, the “Antimicrobial activity after treatment” value (Lactobacillus casei LHS; Detergents (1%): SDS) is reported as “+ (+ = activity zones of at least 5 mm in diameter)” and the “Antimicrobial activity after treatment” value (Lactobacillus casei LHS; Detergents (1%): Triton X-100) is reported as “+ (+ = activity zones of at least 5 mm in diameter)”. The “Antimicrobial activity after treatment” value (Lactobacillus casei LHS; Detergents (1%): Triton X-114) was “−”, the “Antimicrobial activity after treatment” value (Lactobacillus casei LHS; Detergents (1%): Tween 20, Tween 80) was “+ (+ = activity zones of at least 5 mm in diameter)” and the “Antimicrobial activity after treatment” value (Lactobacillus casei LHS; Detergents (1%): urea) was “+ (+ = activity zones of at least 5 mm in diameter)”. The “Antimicrobial activity after treatment” value (Lactobacillus casei LHS; EDTA: 0.1 mM, 1.0 mM, 2.0 mM) was “+ (+ = activity zones of at least 5 mm in diameter)”, the “Antimicrobial activity after treatment” value (Lactobacillus casei LHS; Enzymes: Proteinase K) was “−” and the “Antimicrobial activity after treatment” value (Lactobacillus casei LHS; Enzymes: pepsin) was “−”. For the same substance, the “Antimicrobial activity after treatment” value (Lactobacillus casei LHS; Enzymes: pronase) was “−”, the “Antimicrobial activity after treatment” value (Lactobacillus casei LHS; Enzymes: α-amylase) was “+ (+ = activity zones of at least 5 mm in diameter)” and the “Antimicrobial activity after treatment” value (Lactobacillus casei LHS; Heat: 30, 60, 100° C. for 10 min) was “+ (+ = activity zones of at least 5 mm in diameter)”. The “Antimicrobial activity after treatment” value (Lactobacillus casei LHS; Heat: 30, 60, 100° C. for 30 min) was “+ (+ = activity zones of at least 5 mm in diameter)”, the “Antimicrobial activity after treatment” value (Lactobacillus casei LHS; Heat: 30, 60, 100° C. for 90 min) was “+ (+ = activity zones of at least 5 mm in diameter)” and the “Antimicrobial activity after treatment” value (Lactobacillus casei LHS; Heat: 121° C. for 20 min) was “−”. The “Antimicrobial activity after treatment” value (Lactobacillus casei LHS; pH 2.0-12.0, 37° C. for 30 min, neutralised to pH 7) was “+ (+ = activity zones of at least 5 mm in diameter)”, the “Antimicrobial activity after treatment” value (Lactobacillus casei LHS; proteolytic enzyme papain) was “inactivated” and the “Antimicrobial activity after treatment” value (Lactobacillus casei LHS; proteolytic enzyme trypsin) was “inactivated”. The “Diameter of inhibition zones” value ([2]; Ampicillin 10 μg, Bacitracin 10 units, Chloramphenicol 30 μg, Erythromycin 15 μg, Tetracycline 30 μg, peptide on paper disk) was 25 mm, the “Activity of peptide ST4SA on paper disks” value ([2]; Freeze dried) was 409600 AU/ml and the “Activity of peptide ST4SA on paper disks” value ([2]; Paper disk (0.6 cm diameter)) was 20263 AU/ml. The “Activity of peptide ST4SA on paper disks” value ([2]; Paper disk (2 cm × 2 cm; 700 μl)) was 286720 AU/ml, the “Cytokine (TNF or IFN) expression” value [3] was “did not indicate any cytokine (TNF or IFN) expression” and the “Growth of pathogenic bacteria on red meat” value [4] was “prevented the growth of pathogenic bacteria”.
